To fix the notation:
B1: CPEB3 Ribozyme (parent)
chain: UAACAGGGGGCCACAGCAGAAGCGUUCACGUCGCAGCCCCUGUCAGAUUCUGGUGAAUCUGCGAAUUCUGCUGUAUAUCUC

The variants in this series derive from B1. The series can be described thus: self-cleavage, relative activity (ratio to wild type); higher = more cleavage; in vitro, sequencing. Put shortly:
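After error-prone PCR and barcoding, CPEB3 ribozyme mutant libraries were transcribed with T7 RNA polymerase at 37°C for 5 hours, then given 15 min with DNase I before an EDTA stop, and they cleaved during both steps. Reverse transcription with template switching preceded Illumina sequencing. Relative activity divides a variant's cleaved/total read fraction by the unmutated ribozyme's. At least 5 reads were required per variant, and three batches were averaged.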
For A28U G33U, the self-cleavage was 0.14.

Consider A28U G33C, for which the self-cleavage was 0.26.

A28U G33A: the self-cleavage was found to be 0.2.

As for A28U C81A, the self-cleavage is 0.84.

As for A28U C81U, the self-cleavage amounted to 0.86.

As to A28U U54A, the self-cleavage worked out at 0.71.

A28U U54C: the self-cleavage is 0.78.

On to A28U G46A, for which the self-cleavage worked out at 0.46.

Consider A28U G46U, for which the self-cleavage was determined as 0.14.

Regarding C29A U54C, the self-cleavage came out at 0.45.

Regarding A28U C29U, the self-cleavage stood at 0.48.

For A28U C29G, the self-cleavage amounted to 0.1.

Regarding C29A G53U, the self-cleavage was found to be 0.42.

For the variant C29A C59U, the self-cleavage came out at 0.54.

As for C29A U76G, the self-cleavage is 0.42.

For the variant A28U U31A, the self-cleavage worked out at 0.41.

Regarding A28U U31C, the self-cleavage amounted to 0.53.

Take A28U U31G: the self-cleavage came out at 0.31.

For the variant C29A U78A, the self-cleavage amounted to 0.27.

For the variant C29A U78C, the self-cleavage is 0.3.

As to C29G, the self-cleavage came to 0.3.

Turning to C29A, the self-cleavage was determined as 0.44.

In the case of C29G G33U, the self-cleavage came out at 0.09.

Turning to C29G U54A, the self-cleavage was found to be 0.28.

Turning to A28U C71U, the self-cleavage worked out at 0.39.

For the variant A28U U43C, the self-cleavage worked out at 0.41.

Turning to A28U U43A, the self-cleavage turned out to be 1.

Take C29A U58C: the self-cleavage was 0.29.

A28U U60C: the self-cleavage stood at 0.38.

Regarding A28U U60G, the self-cleavage came out at 0.16.

For A28U U60A, the self-cleavage was 0.26.

Regarding A28U U72A, the self-cleavage amounted to 0.55.

On to A28U U72G, for which the self-cleavage turned out to be 0.89.

Take A28U U72C: the self-cleavage worked out at 0.88.

Turning to C29A A47G, the self-cleavage worked out at 0.4.

Turning to A28U G61A, the self-cleavage was determined as 0.45.

As to C29G A64G, the self-cleavage was 0.41.

For the variant C29G A35G, the self-cleavage turned out to be 0.67.

With C29A U69G, the self-cleavage is 0.22.

Turning to C29A U69C, the self-cleavage amounted to 0.18.

As for C29G C81A, the self-cleavage stood at 0.3.

For the variant C29A A64U, the self-cleavage is 0.27.

As for C29A A64G, the self-cleavage was 0.37.

For C29A G55A, the self-cleavage came to 0.31.

Take C29G A45G: the self-cleavage was found to be 0.29.

Regarding A28U G55A, the self-cleavage came out at 0.59.

A28U C40U: the self-cleavage came to 0.59.

A28U C40G: the self-cleavage was 0.19.

As for A28U C40A, the self-cleavage worked out at 0.47.

As to C29G U49A, the self-cleavage amounted to 0.38.

For A28U G63A, the self-cleavage was determined as 0.62.

C29G U41G: the self-cleavage was 0.15.

For C29G U41A, the self-cleavage is 0.33.

For the variant C29G U41C, the self-cleavage was determined as 0.2.

For the variant A28U U78A, the self-cleavage is 0.51.

For A28U U78C, the self-cleavage turned out to be 0.73.

For A28U U78G, the self-cleavage was found to be 0.97.

A28U C39U: the self-cleavage is 0.48.

For A28U C39A, the self-cleavage came to 0.15.

As to A28U C39G, the self-cleavage worked out at 0.27.

On to C29A U49C, for which the self-cleavage was found to be 0.29.

For C29A U49G, the self-cleavage turned out to be 0.22.

With C29A U49A, the self-cleavage came out at 0.45.

As for C29A A56G, the self-cleavage amounted to 0.43.

Consider A28U U67A, for which the self-cleavage worked out at 0.3.

Turning to A28U U67G, the self-cleavage stood at 0.2.

For A28U U67C, the self-cleavage stood at 0.27.

In the case of A28U U76C, the self-cleavage was determined as 0.88.

With A28U U76A, the self-cleavage was determined as 0.87.

In the case of C29A U48C, the self-cleavage stood at 0.11.

In the case of C29A U48A, the self-cleavage turned out to be 0.09.

C29G A47G: the self-cleavage worked out at 0.21.

As for C29G U43C, the self-cleavage was found to be 0.3.

In the case of C29G U31C, the self-cleavage stood at 0.13.

With A28U G42C, the self-cleavage amounted to 0.28.

In the case of A28U G42A, the self-cleavage was 0.27.

As to A28U G42U, the self-cleavage worked out at 0.21.

Turning to C29G G55A, the self-cleavage turned out to be 0.16.

A28U G30A: the self-cleavage worked out at 0.11.

In the case of A28U G30U, the self-cleavage stood at 0.2.

Take C29A U72C: the self-cleavage turned out to be 0.31.

C29A U72G: the self-cleavage was determined as 0.18.

As to A28U U69G, the self-cleavage is 0.42.

For A28U U69A, the self-cleavage is 0.37.

For A28U U69C, the self-cleavage stood at 0.33.

Consider C29A C32A, for which the self-cleavage came to 0.32.

Regarding C29G G30A, the self-cleavage stood at 0.2.

Take A28U C32U: the self-cleavage stood at 0.17.

On to A28U C32A, for which the self-cleavage was 0.19.

As for C29G C34G, the self-cleavage was found to be 0.22.

As to C29G C34U, the self-cleavage came out at 0.08.

Turning to A28U G36A, the self-cleavage was 0.08.

In the case of A28U G36U, the self-cleavage amounted to 0.41.

Regarding A28U G36C, the self-cleavage was found to be 0.37.

For the variant C29A U74A, the self-cleavage stood at 0.62.

As to C29A U31A, the self-cleavage came out at 0.3.

As to C29A U31C, the self-cleavage stood at 0.3.

For C29A A35U, the self-cleavage amounted to 0.51.

For C29A A35G, the self-cleavage worked out at 1.11.

As for A28U U48A, the self-cleavage was determined as 0.38.

On to A28U U48C, for which the self-cleavage came to 0.42.

Consider C29A U66C, for which the self-cleavage was found to be 0.29.

For the variant C29G G73A, the self-cleavage was 0.39.

Consider C29A C62U, for which the self-cleavage was found to be 0.15.

For the variant C29A A77G, the self-cleavage was 0.46.

In the case of C29A A77U, the self-cleavage worked out at 0.33.

On to C29A G63U, for which the self-cleavage amounted to 0.59.

As to C29G A56G, the self-cleavage worked out at 0.23.

Take C29G C59G: the self-cleavage amounted to 0.2.

With C29G C59A, the self-cleavage amounted to 0.1.

In the case of A28U U80A, the self-cleavage came to 0.71.

Turning to A28U U80C, the self-cleavage was found to be 0.97.

A28U C68A: the self-cleavage came out at 0.32.

Turning to A28U G70A, the self-cleavage came out at 0.27.

For A28U U58A, the self-cleavage stood at 0.26.

As for A28U U58G, the self-cleavage was 0.2.

With A28U U58C, the self-cleavage is 0.39.

C29A A45G: the self-cleavage was 0.46.

In the case of C29G A65G, the self-cleavage stood at 0.27.

Regarding A28U A75G, the self-cleavage came to 0.71.

In the case of A28U A75U, the self-cleavage came out at 0.99.

Take C29A U67C: the self-cleavage worked out at 0.11.

C29A U67A: the self-cleavage came out at 0.46.

As for A28U C37U, the self-cleavage was 0.41.

In the case of C29A C40A, the self-cleavage was 0.17.

With A28U U66A, the self-cleavage turned out to be 0.31.

Consider A28U U66G, for which the self-cleavage amounted to 0.69.

In the case of A28U U66C, the self-cleavage was determined as 0.37.

Consider A28U U74A, for which the self-cleavage turned out to be 1.19.

Consider A28U U74C, for which the self-cleavage was 0.87.

Consider A28U U41G, for which the self-cleavage amounted to 0.14.

As to A28U U41C, the self-cleavage was 0.73.

Consider A28U U41A, for which the self-cleavage came to 0.26.

Turning to C29A U80C, the self-cleavage came out at 0.54.

With A28U C79U, the self-cleavage stood at 0.99.

For the variant C29A A75G, the self-cleavage came out at 0.38.

Regarding A28U C50A, the self-cleavage amounted to 0.53.

For the variant A28U C50G, the self-cleavage was 0.74.

In the case of A28U C50U, the self-cleavage came to 0.8.

As for A28U C59A, the self-cleavage came out at 0.21.

As for A28U C59U, the self-cleavage was 0.34.

Take C29G A75G: the self-cleavage is 0.21.

Regarding A28U C62U, the self-cleavage was found to be 0.19.

A28U C62A: the self-cleavage was 0.33.

Turning to C29A A57G, the self-cleavage is 0.33.

Regarding A28U C38U, the self-cleavage was 0.48.

On to A28U A77U, for which the self-cleavage came out at 0.85.

For the variant A28U A77G, the self-cleavage came out at 0.8.

In the case of A28U G73A, the self-cleavage was 0.99.

For the variant A28U G73U, the self-cleavage stood at 1.37.

On to C29A U41A, for which the self-cleavage is 0.37.

Turning to C29A U41G, the self-cleavage was 0.43.

C29A U41C: the self-cleavage came out at 0.39.

Regarding A28U G52A, the self-cleavage was 0.83.

On to A28U G53A, for which the self-cleavage was 0.87.

As to A28U G53U, the self-cleavage came out at 1.

On to C29G A57G, for which the self-cleavage turned out to be 0.51.

Turning to C29A C68A, the self-cleavage was 0.23.

Consider C29A U60C, for which the self-cleavage stood at 0.2.

Regarding C29A U60A, the self-cleavage worked out at 0.11.

In the case of A28U U49G, the self-cleavage was found to be 0.11.

As to A28U U49A, the self-cleavage is 0.43.

As for A28U U49C, the self-cleavage was determined as 0.31.

In the case of C29A A65U, the self-cleavage was determined as 0.14.

Regarding C29A A65G, the self-cleavage came out at 0.26.

In the case of A28U U51A, the self-cleavage was 0.77.

In the case of A28U U51C, the self-cleavage is 0.73.
